A short description of the data set: yeast display, Sf9 membrane polyspecificity reagent, FACS + sequencing; frameworks hold sequencing errors. The gist of the method:
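In a synthetic yeast display library (Saccharomyces cerevisiae BJ5465), nanobody expression was induced with galactose for 36–48 hours. FACS gates were set low and high (top ~1%) using anti-HA fluorescence for expression and streptavidin fluorescence for binding of the Sf9 membrane reagent. Each polyreactivity label is drawn from the gate of origin.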
With “QVQLVESGGGLVQAGGSLRLSCAASGRTFYGYAMGWYRQAPGKERELVAAISFSGGRTYYADSVKGRFTISRDNAKNTVYLQMNSLKPEDTAVYYCNRGLYPFDWVQGTQVTVSS”, the “polyreactivity (PSR sort gate)” value is reported as “high polyreactivity”. The value for “QVQLVESGGGLVQAGGSLRLSCAASGRTFYGYAMGWYRQAPGKERELVAAISKRGGSTYYADSVKGRFTISRDNAKNTVYLQMNSLKPEDTAVYYCARPYLGPYSGYDYNYWGQGTQVTVSS” was “high polyreactivity”; that for “QVQLVESGGGLVQAGGSLRLSCAASGRTFYGYAMGWYRQAPGKERELVAAISKTGGSTYYADSVKGRFTISRDNAKNTVYLQMNSLKPEDTAVYYCNARRIYRLEYDSWGQGTQVTVSS” was “high polyreactivity”; that for “QVQLVESGGGLVQAGGSLRLSCAASGRTFYGYAMGWYRQAPGKERELVAAITRSGGSTYYADSVKGRFTISRDNAKNTVYLQMNSLKPEDTAVYYCAAGGQARHDYWGQGTQVTVSS” was “low polyreactivity”. The value for “QVQLVESGGGLVQAGGSLRLSCAASGRTFYGYAMGWYRQAPGKERELVASISRDGSTNDADSVKGRFTISRDNAKNTVYLQMNRLKPEDTEVYYCAADIWYYRYPIYYYSYDYWGQGTQVTVSS” was “low polyreactivity”. Under “QVQLVESGGGLVQAGGSLRLSCAASGRTFYGYAMGWYRQAPGNERELVATITRRGGSTYYADSVKGRFRISRDNAKNTVYLQMNSLKPEDTAVYYCARQGDQYYRDGDDYWGQGTQVTVSS” stands “high polyreactivity”; under “QVQLVESGGGLVQAGGSLRLSCAASGRTFYGYDMGWYRQAPGKERELVATISSGGSTNYADSVKGRFTISRDNAKNTVYLQMHSLKPEDTAVYYCIARRFSGYRKGLRPYGSGMNYWGQGTQVTVSS”, “low polyreactivity”; under “QVQLVESGGGLVQAGGSLRLSCAASGRTFYIYAMGWYRQAPGKERELVAAISTRDTRTYYADSVKGRFTISRDNAKNTVYLQMNSLKPEDTAVYYCAADAVDRDSDYWGQGTQVTVSS”, “high polyreactivity”. As for “QVQLVESGGGLVQAGGSLRLSCAASGRTFYIYAMGWYRQAPGKERELVAAITRGGGSTSYADSVKGRFTISRDNAKNTVYLQMNSLKPEDTAVYYCAARYYFRWRRYDYWGQGTQVTVSS”, the “polyreactivity (PSR sort gate)” value is listed as “high polyreactivity”. The value for “QVQLVESGGGLVQAGGSLRLSCAASGRTFYIYAMGWYRQAPGKERELVAAITWRGGRTYYADSVKGRFTISRDNAKNTVYLQMNSLKPVDTAVYYCNARSWYSFHPHDYWGQGTQVTVSS” was “high polyreactivity”; that for “QVQLVESGGGLVQAGGSLRLSCAASGRTFYIYAMGWYRQAPGKERELVADITSGGSTYYADSVKGRFTISRDNAKNTVYLQMNSLKPEDTAVYYCAADWVTFYSYTEYDYWGQGTQVTVSS” was “low polyreactivity”; that for “QVQLVESGGGLVQAGGSLRLSCAASGRTFYIYAMGWYRQAPGKERELVAGITYSGGRTYYADSVKGRFTISRDNAKNTVYLQMNSLKPEDTAVYYCAARPYLTTEGPYNYWGQGTQVTVSS” was “low polyreactivity”. With “QVQLVESGGGLVQAGGSLRLSCAASGRTFYIYAMGWYRQAPVKERELVAAITYGGGRTFYADSVKGRFTISRDNAKNTVYLKMNSLKPEDTAVYYCARGDFYYHSRYTYYTSDYWGQGTQVTVSS”, the “polyreactivity (PSR sort gate)” value is “high polyreactivity”.

“QVQLVESGGGLVQAGGSLRLSCAASGRTFYKYAMGWYRPAPGKERELVAAISGSGGGTYYADSVKGRFTISRDNAKNTVYLQMNSLKPEDTAVYYCAAVYLYYAYAFDYWGQGTHVTVSS”: the “polyreactivity (PSR sort gate)” value is reported as “high polyreactivity”. The value for “QVQLVESGGGLVQAGGSLRLSCAASGRTFYKYAMGWYRQAPGKERELVAAISKSGGRTYYADSVKGRFTISRDNAKNTVYLQLNSLKPEDTAVYYCAAEPFIPDQSRYYYWGQGTQVTVSS” was “high polyreactivity”; that for “QVQLVESGGGLVQAGGSLRLSCAASGRTFYLNAMGWYRQAPGKERQLVAVISYRGDSTYADSVKGRFTISRDNAKNTVYLQMNSLKPEDTAVYYCAADLTRYHYRYLVTHWWYDYWGQGTQVTVSS” was “low polyreactivity”.

Consider “QVQLVESGGGLVQAGGSLRLSCAASGRTFYLYTMGWYRQAPGKERELVAAINGSGGSTYYADSVKGRFTISRDNAKNTVYLQMNSLKPEATAVYYCAVLYRYGYDYWGQGTQVTVSS”, for which the “polyreactivity (PSR sort gate)” value was “low polyreactivity”.

For “QVQLVESGGGLVQAGGSLRLSCAASGRTFYNAMGWYRQAPGKERELVAGIRWSGASTYYADSVKGRFTISRDNAKNTVYLQMNSLKPEDTAVYYCAARRHSTRLRLTYDYWGQGTQVTVSS”, the “polyreactivity (PSR sort gate)” value is reported as “high polyreactivity”.

“QVQLVESGGGLVQAGGSLRLSCAASGRTFYNNAMGWYRPAPGKERELVAVISGRGGSTYYADSVKGRFTISRDNAKNTVYLQMNSLKPEDTAVYYCAAGYTRPWRFTYYYWGQGTQVTVSS”: the “polyreactivity (PSR sort gate)” value is given as “high polyreactivity”. Under “QVQLVESGGGLVQAGGSLRLSCAASGRTFYNTMGLYRQAPGKERELVAAISRGGITNYADSVKGRFTISRDSAKNTGDLQMHSLKPEDTAVYYCNAEPKRYYYYYKFDSWGQGTQVTVSS” stands “high polyreactivity”; under “QVQLVESGGGLVQAGGSLRLSCAASGRTFYPNAMGWSRQAPGKERELVAAINSGGSTYYADSVKGRFTISRDNAKNTVYLQMNSLKPEDTAVYYCNAERRIAYEYWGQGTQVTVSS”, “low polyreactivity”. Regarding “QVQLVESGGGLVQAGGSLRLSCAASGRTFYPNAMGWYRQAPGKEREFVARISDSGGSTYYADSVKGRFTISRDNAKNTVYLLMNSLKPEDTAVYYCAADYGDPRVNEYDYWGQGTQVTVSS”, the “polyreactivity (PSR sort gate)” value was “low polyreactivity”.

Regarding “QVQLVESGGGLVQAGGSLRLSCAASGRTFYPSAMGWYRQAPGKERQLVAAITTSGGRTYYADSVKGRFTISRDNAKNTVYLQMNSLKPEDTAVYYCAKAYREGEGKFDYWGQGTQVTVSS”, the “polyreactivity (PSR sort gate)” value was “high polyreactivity”. Under “QVQLVESGGGLVQAGGSLRLSCAASGRTFYPYAKGWYRQAPGKERELVAAIRWSGGSTYYADSVKGRFTISRDNAKNTVYLQMNSLKPEDTAVYYCNADWKSYRGPKFDYWGQGTQVTVSS” stands “low polyreactivity”. Under “QVQLVESGGGLVQAGGSLRLSCAASGRTFYPYAMGWYRQAPGKARELVASINWSGASTYYADSVKGRFTISRDNAKNTVYLQMNSLKPEDTAVYYCAARYTPRRYYYWGQGTHVTVSS” stands “high polyreactivity”; under “QVQLVESGGGLVQAGGSLRLSCAASGRTFYPYAMGWYRQAPGKERELVAAISSGGGSTYYADSVKGRFTISRDNAKNTVYLQMNSLKPEDTAVYYCAKRAGWAGWYYRNDYWGQGTQVTVSS”, “high polyreactivity”; under “QVQLVESGGGLVQAGGSLRLSCAASGRTFYPYGMGWYRQAPGKERELVATITTGGSTNYADSVKGRFTISRDNAKTTVYLQMNSLKPEDTAVYYCAAKTRIRYYSWGQGTQVTVSS”, “low polyreactivity”. Under “QVQLVESGGGLVQAGGSLRLSCAASGRTFYQYYMGWYRQSPGKEREVVAAIDWSGGSTYYADSVKGRFTISRDNAKNTVYLQMNSLKPEDTAVYYCNADAYPHPVVGYDYWGQGTQVTVSS” stands “low polyreactivity”.

For the sequence “QVQLVESGGGLVQAGGSLRLSCAASGRTFYRNAMGWYRQAPGKERELVAAIRGSGSSTYYADSVKGRFTISRDNAKNTVYLQMNSLKPEDTAVYYCAADYITYNGYARYYYWGQGTQVTVSS”, the “polyreactivity (PSR sort gate)” value is recorded as “high polyreactivity”. Under “QVQLVESGGGLVQAGGSLRLSCAASGRTFYRNPMGWYRQAPGKEWELVAGITRCGRTYYADSVKGRFRISRDNAKNTVYLQMNCLKPEDTAVYYCNKTGGNGNDYWGQGTQVTVSS” stands “low polyreactivity”; under “QVQLVESGGGLVQAGGSLRLSCAASGRTFYRNTMGWYRQAPGKERELVAGISYSGGSTYYADSVKGRFTISRDNAKNTVYLQMNSLKPEDTAVYYCATVRRYGYGYDYWGQGTQVTVSS”, “high polyreactivity”; under “QVQLVESGGGLVQAGGSLRLSCAASGRTFYRYAMGWYRQAPGKERELVAAITTSGGSTYYADSVKGRFTISRDNAKNTVYLQMNSLKPEDTAVYYCAATYYGYHIRDDYWGQGTQVTVSS”, “low polyreactivity”.

On to “QVQLVESGGGLVQAGGSLRLSCAASGRTFYRYAMGWYRQAPGKERELVARIRSGGSTNYADSVKGRFTISRDNAKNTVYLQMNSLKPEDTAVYYCAARPGAAGYKYYYWGQGTQVTVSS”, for which the “polyreactivity (PSR sort gate)” value is reported as “high polyreactivity”. As for “QVQLVESGGGLVQAGGSLRLSCAASGRTFYRYAMGWYRQAPGKERELVARITSGSSTNYADSVKGRFTISRDNAKNTVYLQMNSLKPEDTAVYYCAKDPRPYLDYDYWGQGTQVTVSS”, the “polyreactivity (PSR sort gate)” value is “low polyreactivity”. Under “QVQLVESGGGLVQAGGSLRLSCAASGRTFYRYTMGWYRQAPGTERELVAAISWSGGSTYYADSVKGRFTSSRDNAKNTVYLQMNSLKPEDTAVYYCAKATYWLYVQWYTYGYWGQGTQVTVSS” stands “high polyreactivity”; under “QVQLVESGGGLVQAGGSLRLSCAASGRTFYRYVMGWYRQAPGKERELVATITNGGSTNYADSVKGRFTISRYNAKNTVYLQMNSLKPEDTAVYYCAADYPGYVGWPYSYEYYYWGQCTQVTVSS”, “low polyreactivity”. The value for “QVQLVESGGGLVQAGGSLRLSCAASGRTFYSNTMGWYRQAPGNERELVAAISRSGVGTYYADSVKGRFTISRDIAKNSVYLHMNSLKPEDTAVYYCAALPTGKSGYLYDYWGQGTQVTVSS” was “high polyreactivity”; that for “QVQLVESGGGLVQAGGSLRLSCAASGRTFYSYAMGWYRPAPGKERELVAAINSGGDTYYADSVKGRFTISRDNAKNTVYLQMNSLKPEDTAVYYCAADYYWEMDSWGQGTQVTVSS” was “low polyreactivity”; that for “QVQLVESGGGLVQAGGSLRLSCAASGRTFYSYAMGWYRQAPGKERELVAAITWRASTYYADSVKGRFTISRDNAKNTVYLQMNSLKPEDTAVYYCAVRDYRPRYYTFLYNSPYDYWGQGTQVTVSS” was “high polyreactivity”.

Turning to “QVQLVESGGGLVQAGGSLRLSCAASGRTFYSYAMGWYRQAPGKERELVAGITWSGTSTYYADSVKGRFTISRDNAKNTVYLQMNSLKPEDTAVYYCAAATLYSRYDYWGQGSQVTVSS”, the “polyreactivity (PSR sort gate)” value is given as “low polyreactivity”. The value for “QVQLVESGGGLVQAGGSLRLSCAASGRTFYSYTMGWYRQAPGKERELVAAINRGGSTYYADSVKGRFTISRDNAKNTVYLQMNSLYPVDNAVYYCAVGYAHSSNRRYYYKQTHGYWGQGTQVTVSS” was “low polyreactivity”.

The record behind these values is the nanobody polyreactivity screen of Harvey et al. (2022).
